Data set [1] deals with 'dead' C3(NH3), P01024.
Data set [2] addresses 'live' C3 (C3 with an intact thiol ester bond), P01024.
The target in data set [3] is T1, Human C2, P06681.
T1 chain: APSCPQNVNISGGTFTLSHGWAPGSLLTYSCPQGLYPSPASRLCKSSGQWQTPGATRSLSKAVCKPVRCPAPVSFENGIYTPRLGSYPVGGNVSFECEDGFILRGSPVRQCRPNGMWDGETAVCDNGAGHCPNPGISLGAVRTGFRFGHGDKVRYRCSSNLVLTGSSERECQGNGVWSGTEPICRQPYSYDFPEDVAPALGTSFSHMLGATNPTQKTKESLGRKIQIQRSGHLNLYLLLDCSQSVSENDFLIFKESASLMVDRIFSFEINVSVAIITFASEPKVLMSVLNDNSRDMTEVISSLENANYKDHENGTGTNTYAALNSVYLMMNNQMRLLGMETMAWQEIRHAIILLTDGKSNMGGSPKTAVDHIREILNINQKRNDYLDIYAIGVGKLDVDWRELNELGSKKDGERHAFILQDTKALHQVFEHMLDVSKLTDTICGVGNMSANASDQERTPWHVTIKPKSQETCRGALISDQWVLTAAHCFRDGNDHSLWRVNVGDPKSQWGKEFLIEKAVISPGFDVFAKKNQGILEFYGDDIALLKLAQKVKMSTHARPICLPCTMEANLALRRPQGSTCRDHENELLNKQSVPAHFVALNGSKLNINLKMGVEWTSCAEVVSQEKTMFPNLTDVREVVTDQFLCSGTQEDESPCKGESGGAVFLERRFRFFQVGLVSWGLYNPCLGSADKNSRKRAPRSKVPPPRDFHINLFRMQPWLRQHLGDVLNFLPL

The target in data set [4] is Human C4, P0C0L4.
Chain of Human C4, P0C0L4 (P0C0L4 whole entry, looked up): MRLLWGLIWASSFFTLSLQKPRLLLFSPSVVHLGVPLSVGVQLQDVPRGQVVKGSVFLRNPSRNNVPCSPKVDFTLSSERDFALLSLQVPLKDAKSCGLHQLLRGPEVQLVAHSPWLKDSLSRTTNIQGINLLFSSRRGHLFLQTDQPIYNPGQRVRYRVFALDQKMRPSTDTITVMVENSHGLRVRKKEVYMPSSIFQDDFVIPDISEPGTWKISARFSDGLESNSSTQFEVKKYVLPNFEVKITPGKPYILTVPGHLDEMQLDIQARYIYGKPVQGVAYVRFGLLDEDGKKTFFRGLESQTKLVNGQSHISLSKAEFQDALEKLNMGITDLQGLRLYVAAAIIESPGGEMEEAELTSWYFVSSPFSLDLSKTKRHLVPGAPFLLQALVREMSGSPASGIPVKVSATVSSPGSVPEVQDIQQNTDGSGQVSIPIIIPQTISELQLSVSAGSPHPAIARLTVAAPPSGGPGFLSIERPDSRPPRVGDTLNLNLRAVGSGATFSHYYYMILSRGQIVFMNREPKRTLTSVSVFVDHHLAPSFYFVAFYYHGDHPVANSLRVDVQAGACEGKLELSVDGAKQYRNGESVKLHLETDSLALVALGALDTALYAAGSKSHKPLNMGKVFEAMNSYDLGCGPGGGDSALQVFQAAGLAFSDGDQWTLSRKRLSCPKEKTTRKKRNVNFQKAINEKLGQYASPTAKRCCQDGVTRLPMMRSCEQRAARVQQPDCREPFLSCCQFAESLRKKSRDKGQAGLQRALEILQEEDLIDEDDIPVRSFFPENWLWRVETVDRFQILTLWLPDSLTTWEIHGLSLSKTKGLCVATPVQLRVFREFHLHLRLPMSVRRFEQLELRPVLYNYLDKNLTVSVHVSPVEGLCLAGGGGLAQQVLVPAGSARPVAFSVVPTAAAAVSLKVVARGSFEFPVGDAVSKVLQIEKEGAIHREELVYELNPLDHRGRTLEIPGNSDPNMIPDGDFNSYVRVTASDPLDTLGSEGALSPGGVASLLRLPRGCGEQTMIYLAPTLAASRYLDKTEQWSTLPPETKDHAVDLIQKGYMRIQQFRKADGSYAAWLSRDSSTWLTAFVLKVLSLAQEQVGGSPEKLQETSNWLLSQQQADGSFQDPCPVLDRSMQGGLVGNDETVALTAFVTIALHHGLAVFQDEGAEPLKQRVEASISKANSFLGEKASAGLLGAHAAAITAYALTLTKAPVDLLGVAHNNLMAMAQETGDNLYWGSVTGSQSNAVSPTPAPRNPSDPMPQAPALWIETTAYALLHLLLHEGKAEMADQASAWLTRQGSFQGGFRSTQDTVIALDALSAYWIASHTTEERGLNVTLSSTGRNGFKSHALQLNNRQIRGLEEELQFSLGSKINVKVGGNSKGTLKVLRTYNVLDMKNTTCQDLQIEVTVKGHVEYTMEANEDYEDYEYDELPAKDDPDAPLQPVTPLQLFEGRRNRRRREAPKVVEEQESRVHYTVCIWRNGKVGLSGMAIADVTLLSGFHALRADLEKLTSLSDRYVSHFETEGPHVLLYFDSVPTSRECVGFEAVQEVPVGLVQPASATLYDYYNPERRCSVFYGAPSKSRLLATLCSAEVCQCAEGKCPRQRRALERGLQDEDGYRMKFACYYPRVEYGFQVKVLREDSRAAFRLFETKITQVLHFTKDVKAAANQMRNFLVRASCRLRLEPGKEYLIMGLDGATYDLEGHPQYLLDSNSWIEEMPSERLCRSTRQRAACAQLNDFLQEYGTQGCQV
Data set [5] has as its target T2, P1 Arg oligopeptide of the competing oligopeptide substrate library.
T2 chain: HAAPRSANIQIAI

Data set [6] has as its target T3, P1 Lys oligopeptide of the competing oligopeptide substrate library.
T3 chain: HAAPKSANIQIAI

For data set [7], the target named is T4, C1-inhibitor, P05155.
T4 chain: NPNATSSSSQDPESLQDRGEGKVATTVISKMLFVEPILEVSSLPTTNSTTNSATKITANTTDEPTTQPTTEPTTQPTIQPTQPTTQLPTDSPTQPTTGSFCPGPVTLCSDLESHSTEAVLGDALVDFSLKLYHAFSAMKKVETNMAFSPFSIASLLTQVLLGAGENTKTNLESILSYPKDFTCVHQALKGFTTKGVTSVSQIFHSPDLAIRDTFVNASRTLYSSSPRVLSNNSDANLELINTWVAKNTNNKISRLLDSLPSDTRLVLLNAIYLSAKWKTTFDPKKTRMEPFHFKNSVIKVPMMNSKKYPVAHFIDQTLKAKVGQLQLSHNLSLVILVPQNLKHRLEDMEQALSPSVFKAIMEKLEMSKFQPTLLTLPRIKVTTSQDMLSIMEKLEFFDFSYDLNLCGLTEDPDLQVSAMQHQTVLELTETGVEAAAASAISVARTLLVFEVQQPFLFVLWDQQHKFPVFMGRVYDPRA
The data set is described as follows: SDS-stable complex formation of 125I-labelled MASP fragments with C1-inhibitor.

In data set [8] the target is T4, C1-inhibitor, P05155. The experiment in a line: SDS-stable complex formation of 125I-labelled MASP fragment with C1-inhibitor, reducing SDS-PAGE, autoradiography and densitometry.

Chain of 'live' C3 (C3 with an intact thiol ester bond), P01024 (P01024 whole entry, looked up): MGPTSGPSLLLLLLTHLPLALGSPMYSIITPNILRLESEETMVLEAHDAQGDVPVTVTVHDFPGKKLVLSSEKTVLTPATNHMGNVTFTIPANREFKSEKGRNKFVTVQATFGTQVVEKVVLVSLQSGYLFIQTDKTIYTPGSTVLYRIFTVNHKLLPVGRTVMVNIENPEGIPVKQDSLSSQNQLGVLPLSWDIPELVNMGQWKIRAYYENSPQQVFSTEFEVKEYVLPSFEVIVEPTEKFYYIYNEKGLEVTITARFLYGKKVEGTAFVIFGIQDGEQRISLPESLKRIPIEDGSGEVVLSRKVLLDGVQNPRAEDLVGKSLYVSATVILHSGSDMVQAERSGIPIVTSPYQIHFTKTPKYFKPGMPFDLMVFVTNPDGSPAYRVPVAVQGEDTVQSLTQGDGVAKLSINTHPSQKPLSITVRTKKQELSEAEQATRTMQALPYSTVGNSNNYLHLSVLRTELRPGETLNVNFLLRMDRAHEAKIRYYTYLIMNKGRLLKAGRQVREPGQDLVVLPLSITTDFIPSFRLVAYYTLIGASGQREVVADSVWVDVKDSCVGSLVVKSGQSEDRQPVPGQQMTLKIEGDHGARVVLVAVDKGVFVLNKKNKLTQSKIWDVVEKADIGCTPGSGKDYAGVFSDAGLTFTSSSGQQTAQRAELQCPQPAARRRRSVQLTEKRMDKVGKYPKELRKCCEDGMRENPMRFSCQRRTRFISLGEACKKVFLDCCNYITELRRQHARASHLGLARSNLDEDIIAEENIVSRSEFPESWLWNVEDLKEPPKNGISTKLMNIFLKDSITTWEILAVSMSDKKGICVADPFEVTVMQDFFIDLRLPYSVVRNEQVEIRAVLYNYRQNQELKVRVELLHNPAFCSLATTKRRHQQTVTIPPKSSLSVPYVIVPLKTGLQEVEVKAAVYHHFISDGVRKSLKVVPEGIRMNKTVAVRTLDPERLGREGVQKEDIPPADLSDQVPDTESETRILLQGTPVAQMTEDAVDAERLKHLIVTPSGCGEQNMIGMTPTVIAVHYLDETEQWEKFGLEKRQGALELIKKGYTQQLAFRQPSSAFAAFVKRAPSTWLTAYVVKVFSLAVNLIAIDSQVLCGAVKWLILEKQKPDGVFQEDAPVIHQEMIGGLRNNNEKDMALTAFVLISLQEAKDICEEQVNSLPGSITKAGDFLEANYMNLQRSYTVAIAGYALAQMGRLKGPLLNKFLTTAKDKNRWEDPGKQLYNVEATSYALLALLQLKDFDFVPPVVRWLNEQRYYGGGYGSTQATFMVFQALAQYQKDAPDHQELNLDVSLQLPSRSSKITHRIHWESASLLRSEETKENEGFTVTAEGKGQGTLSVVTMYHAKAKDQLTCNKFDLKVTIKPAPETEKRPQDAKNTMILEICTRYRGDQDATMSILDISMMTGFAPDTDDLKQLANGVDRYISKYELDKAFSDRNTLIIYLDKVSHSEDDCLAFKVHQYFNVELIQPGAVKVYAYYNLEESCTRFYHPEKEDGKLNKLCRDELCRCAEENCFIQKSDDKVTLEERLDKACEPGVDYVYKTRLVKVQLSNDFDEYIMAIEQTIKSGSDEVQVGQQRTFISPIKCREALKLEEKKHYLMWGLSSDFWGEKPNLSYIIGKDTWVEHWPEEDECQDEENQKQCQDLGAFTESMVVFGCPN
Chain of 'dead' C3(NH3), P01024 (P01024 whole entry, looked up): as above

B1: MASP-1 CCP1-CCP2-SP fragment (protein)
chain 1: ASMTGNECPELQPPVHGKIEPSQAKYFFKDQVLVSCDTGYKVLKDNVEMDTFQIECLKDGTWSNKIPTCKIVDCRAPGELEHGLITFSTRNNLTTYKSEIKYSCQEPYYKMLNNNTGIYTCSAQGVWMNKVLGRSLPTCLPVCGLPKFSRKLMAR
chain 2: IFNGRPAQKGTTPWIAMLSHLNGQPFCGGSLLGSSWIVTAAHCLHQSLDPEDPTLRDSDLLSPSDFKIILGKHWRLRSDENEQHLGVKHTTLHPQYDPNTFENDVALVELLESPVLNAFVMPICLPEGPQQEGAMVIVSGWGKQFLQRFPETLMEIEIPIVDHSTCQKAYAPLKKKVTRDMICAGEKEGGKDACAGDSGGPMVTLNRERGQWYLVGTVSWGDDCGKKDRYGVYSYIHHNKDWIQRVTGVRN
For the protein B1, in data set [1], the kcat/KM, cleavage of C3(NH3) came out at 6100 M⁻¹ s⁻¹. Further, the kcat/KM, cleavage of live C3 in data set [2] is 300 M⁻¹ s⁻¹. In addition, in data set [3], the KM, C2 cleavage stood at 4.8 µM; the kcat, C2 cleavage was 0.1 s⁻¹; the kcat/KM, C2 cleavage turned out to be 30000 M⁻¹ s⁻¹. In data set [4], the KM, C4 cleavage was 2.7 µM; the kcat, C4 cleavage came to 0.002 s⁻¹; the kcat/KM, C4 cleavage is 690 M⁻¹ s⁻¹. For the same protein, in data set [5], the “cleavage in the competing oligopeptide substrate library” value is given as “both enzymes cleave oligopeptides that contain either Arg or Lys at their P1 positions”, the “digestion of the P1 Arg oligopeptide at 15 min” value is reported as “at 15 min MASP-1 showed almost 90% digestion” and the “efficiency of digestion against the MASP-2 CCP1-CCP2-SP fragment” value is listed as “the MASP-1 CCP1-CCP2-SP fragment digests the P1 Arg peptide 4-5 fold more efficiently than the corresponding fragment of MASP-2”. Moreover, in data set [6], the “cleavage in the competing oligopeptide substrate library” value is recorded as “both enzymes cleave oligopeptides that contain either Arg or Lys at their P1 positions”. Further, the “fold lower kobs than for the MASP-2 CCP1-CCP2-SP fragment” value in data set [7] is recorded as 5-fold less for the MASP-1 CCP1-CCP2-SP than for the MASP-2 CCP1-CCP2-SP fragment. In data set [8], the kobs (pseudo-first order rate of reaction at [C1-inh] = 350 nM) turned out to be 0.0014 s⁻¹.
